The target in data set [1] is c-Src SH2. Kind of data set: SH2 binding enrichment of the phosphorylated peptide, bacterial display (enrichment ratio); higher = better substrate or ligand; peptides without Tyr show the background.
Data set [2] has as its target SHP2-C SH2. The data set is described as above.
Data set [3] concerns the target Grb2 SH2 (UniProt P62993). The data set is described as above.
The target in data set [4] is Jak2 (UniProt O60674). Kind of data set: phosphorylation enrichment, bacterial display (enrichment ratio); higher = better substrate or ligand; peptides without Tyr show the background.
The target of data set [5] is FGFR3 (UniProt P22607). Described as above.
Data set [6] relates to AncSZ. Described as above.
Data set [7] deals with c-Src. The data set is described as above.
Data set [8] deals with MERTK (UniProt Q12866). Described as above.
The target of data set [9] is EPHB2 (UniProt P29323). The description is as above.
The test system of data set [10] is Fer (mouse). Described as above.
The subject of data set [11] is c-Abl (mouse). The data set is described as above.
In data set [12] the target is Hck (UniProt P08631). Described as above.
Data set [13] has as its target FGFR1 (UniProt P11362). The description is as above.
Data set [14] concerns the target Fyn (UniProt P06241). The description is as above.
In data set [15] the target is EPHB1 (UniProt P54762). Described as above.
Data set [16] concerns the target Fes (UniProt P07332). The description is as above.
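Throughout, for SH2 binding enrichment of the phosphorylated peptide, bacterial display: peptide library displayed on the E. coli surface as eCPX fusions, selected cells deep-sequenced, score is each peptide's frequency after selection divided by its frequency in the input.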
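Throughout, for phosphorylation enrichment, bacterial display: 11-residue human phosphosite peptides and single-mutation variants displayed on the E. coli surface, counted by deep sequencing, each peptide's frequency after selection divided by its frequency in the unselected input library; frequency after pTyr selection over input frequency; kinase dosed for 20-30% of maximal phosphorylation in three min.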

Hck, sequence (P08631 whole entry, looked up): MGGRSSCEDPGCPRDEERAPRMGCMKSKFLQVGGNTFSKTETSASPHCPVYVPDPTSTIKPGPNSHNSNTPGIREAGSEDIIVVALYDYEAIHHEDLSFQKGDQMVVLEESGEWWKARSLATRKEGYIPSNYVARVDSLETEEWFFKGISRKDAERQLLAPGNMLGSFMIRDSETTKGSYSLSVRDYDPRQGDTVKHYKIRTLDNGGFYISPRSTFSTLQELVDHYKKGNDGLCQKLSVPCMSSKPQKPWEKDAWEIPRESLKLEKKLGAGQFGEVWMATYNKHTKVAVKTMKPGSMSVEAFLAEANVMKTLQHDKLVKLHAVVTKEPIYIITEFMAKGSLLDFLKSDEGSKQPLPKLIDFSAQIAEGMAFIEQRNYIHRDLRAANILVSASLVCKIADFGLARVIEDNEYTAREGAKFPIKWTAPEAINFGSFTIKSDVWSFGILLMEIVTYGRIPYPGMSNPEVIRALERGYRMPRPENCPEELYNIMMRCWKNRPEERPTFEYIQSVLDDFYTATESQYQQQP
EPHB2, sequence (P29323 whole entry, looked up): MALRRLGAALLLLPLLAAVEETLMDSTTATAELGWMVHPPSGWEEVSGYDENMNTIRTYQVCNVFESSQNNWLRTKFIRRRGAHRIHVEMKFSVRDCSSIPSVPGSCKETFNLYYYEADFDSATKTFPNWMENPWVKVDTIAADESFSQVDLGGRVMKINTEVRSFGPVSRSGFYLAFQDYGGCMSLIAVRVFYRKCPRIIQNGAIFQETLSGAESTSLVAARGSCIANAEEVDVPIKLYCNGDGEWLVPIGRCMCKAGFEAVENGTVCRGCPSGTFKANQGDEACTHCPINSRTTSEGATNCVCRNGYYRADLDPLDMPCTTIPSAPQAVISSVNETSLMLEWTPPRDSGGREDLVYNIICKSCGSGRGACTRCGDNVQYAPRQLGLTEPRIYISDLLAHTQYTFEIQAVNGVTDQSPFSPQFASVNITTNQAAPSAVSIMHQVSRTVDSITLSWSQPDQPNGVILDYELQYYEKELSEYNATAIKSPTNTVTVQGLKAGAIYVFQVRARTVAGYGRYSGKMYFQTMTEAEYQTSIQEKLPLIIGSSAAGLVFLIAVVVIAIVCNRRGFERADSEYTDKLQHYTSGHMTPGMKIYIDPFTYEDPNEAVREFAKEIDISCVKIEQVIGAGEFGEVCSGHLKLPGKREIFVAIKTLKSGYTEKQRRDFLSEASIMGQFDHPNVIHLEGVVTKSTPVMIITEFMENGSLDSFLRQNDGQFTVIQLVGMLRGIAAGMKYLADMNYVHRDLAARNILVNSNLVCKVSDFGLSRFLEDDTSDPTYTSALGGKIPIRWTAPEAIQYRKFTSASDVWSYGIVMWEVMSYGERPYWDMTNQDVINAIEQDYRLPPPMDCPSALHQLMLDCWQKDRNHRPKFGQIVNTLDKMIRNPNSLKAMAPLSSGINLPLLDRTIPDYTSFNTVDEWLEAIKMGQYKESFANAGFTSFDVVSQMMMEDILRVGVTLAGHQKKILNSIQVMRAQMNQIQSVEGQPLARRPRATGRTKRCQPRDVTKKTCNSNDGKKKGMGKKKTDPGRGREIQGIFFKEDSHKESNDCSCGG
Fyn, sequence (P06241 whole entry, looked up): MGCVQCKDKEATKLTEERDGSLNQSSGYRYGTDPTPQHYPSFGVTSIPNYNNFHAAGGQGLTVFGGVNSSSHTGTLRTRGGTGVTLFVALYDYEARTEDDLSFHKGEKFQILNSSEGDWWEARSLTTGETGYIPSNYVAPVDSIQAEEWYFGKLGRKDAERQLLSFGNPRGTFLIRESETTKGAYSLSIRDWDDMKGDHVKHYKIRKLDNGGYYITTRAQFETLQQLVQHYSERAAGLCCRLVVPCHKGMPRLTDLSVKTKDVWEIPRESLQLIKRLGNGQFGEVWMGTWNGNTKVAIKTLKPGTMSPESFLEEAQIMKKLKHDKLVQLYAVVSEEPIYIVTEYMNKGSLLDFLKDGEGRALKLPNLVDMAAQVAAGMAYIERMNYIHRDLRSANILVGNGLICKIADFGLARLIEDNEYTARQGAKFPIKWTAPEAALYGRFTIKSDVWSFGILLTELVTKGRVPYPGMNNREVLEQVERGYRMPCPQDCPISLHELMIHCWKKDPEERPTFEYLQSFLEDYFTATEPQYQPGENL
Fes, sequence (P07332 whole entry, looked up, the tested form may be a part): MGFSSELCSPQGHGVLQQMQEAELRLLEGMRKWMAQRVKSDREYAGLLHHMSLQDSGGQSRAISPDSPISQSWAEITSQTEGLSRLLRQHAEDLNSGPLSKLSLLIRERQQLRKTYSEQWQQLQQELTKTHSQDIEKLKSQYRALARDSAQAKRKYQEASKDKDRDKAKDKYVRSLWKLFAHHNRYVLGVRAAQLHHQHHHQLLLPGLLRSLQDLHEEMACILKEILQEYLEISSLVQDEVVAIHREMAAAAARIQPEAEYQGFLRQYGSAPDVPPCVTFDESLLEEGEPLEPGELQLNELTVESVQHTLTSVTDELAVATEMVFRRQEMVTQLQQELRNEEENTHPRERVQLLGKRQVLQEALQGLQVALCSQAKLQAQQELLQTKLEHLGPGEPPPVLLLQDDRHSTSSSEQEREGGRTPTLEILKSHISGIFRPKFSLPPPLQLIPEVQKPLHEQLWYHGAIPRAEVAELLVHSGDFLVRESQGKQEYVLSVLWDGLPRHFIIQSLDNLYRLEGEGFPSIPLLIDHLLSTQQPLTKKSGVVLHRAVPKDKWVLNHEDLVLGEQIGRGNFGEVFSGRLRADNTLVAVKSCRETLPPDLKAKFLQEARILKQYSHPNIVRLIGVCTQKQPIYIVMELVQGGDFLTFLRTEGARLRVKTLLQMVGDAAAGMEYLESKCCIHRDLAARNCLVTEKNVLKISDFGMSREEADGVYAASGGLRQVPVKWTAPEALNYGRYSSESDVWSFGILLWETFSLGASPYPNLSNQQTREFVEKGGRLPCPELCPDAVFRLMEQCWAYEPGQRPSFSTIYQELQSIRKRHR
Grb2 SH2, sequence (P62993 whole entry, looked up): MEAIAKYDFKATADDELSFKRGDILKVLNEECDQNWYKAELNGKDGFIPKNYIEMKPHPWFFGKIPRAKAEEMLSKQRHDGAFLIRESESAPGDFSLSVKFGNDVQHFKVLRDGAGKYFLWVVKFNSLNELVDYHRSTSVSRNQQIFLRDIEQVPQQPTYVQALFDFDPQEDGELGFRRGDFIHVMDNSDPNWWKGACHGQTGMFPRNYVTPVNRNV
FGFR1, sequence (P11362 whole entry, looked up): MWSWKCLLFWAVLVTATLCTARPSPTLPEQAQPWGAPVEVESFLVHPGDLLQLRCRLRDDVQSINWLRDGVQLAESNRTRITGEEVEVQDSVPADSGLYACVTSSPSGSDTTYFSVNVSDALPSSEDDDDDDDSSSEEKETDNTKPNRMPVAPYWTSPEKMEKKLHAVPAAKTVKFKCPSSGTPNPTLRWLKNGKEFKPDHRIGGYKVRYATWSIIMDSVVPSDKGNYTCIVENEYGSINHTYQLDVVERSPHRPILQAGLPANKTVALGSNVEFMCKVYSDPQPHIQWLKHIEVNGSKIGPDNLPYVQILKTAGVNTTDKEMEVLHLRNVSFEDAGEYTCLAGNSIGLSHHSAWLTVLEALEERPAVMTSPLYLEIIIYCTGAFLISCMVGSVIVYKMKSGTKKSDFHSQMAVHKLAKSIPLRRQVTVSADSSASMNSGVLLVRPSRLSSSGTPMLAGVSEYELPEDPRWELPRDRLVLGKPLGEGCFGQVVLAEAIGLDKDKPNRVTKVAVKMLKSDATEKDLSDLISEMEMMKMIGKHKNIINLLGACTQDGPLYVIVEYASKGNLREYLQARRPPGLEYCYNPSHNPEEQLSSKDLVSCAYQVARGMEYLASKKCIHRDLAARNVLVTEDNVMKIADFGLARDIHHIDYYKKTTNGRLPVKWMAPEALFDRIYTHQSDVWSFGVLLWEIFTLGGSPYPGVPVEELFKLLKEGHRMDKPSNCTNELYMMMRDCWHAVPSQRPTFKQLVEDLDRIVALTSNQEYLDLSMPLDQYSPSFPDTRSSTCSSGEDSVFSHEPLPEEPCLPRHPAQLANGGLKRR
MERTK, sequence (Q12866 whole entry, looked up): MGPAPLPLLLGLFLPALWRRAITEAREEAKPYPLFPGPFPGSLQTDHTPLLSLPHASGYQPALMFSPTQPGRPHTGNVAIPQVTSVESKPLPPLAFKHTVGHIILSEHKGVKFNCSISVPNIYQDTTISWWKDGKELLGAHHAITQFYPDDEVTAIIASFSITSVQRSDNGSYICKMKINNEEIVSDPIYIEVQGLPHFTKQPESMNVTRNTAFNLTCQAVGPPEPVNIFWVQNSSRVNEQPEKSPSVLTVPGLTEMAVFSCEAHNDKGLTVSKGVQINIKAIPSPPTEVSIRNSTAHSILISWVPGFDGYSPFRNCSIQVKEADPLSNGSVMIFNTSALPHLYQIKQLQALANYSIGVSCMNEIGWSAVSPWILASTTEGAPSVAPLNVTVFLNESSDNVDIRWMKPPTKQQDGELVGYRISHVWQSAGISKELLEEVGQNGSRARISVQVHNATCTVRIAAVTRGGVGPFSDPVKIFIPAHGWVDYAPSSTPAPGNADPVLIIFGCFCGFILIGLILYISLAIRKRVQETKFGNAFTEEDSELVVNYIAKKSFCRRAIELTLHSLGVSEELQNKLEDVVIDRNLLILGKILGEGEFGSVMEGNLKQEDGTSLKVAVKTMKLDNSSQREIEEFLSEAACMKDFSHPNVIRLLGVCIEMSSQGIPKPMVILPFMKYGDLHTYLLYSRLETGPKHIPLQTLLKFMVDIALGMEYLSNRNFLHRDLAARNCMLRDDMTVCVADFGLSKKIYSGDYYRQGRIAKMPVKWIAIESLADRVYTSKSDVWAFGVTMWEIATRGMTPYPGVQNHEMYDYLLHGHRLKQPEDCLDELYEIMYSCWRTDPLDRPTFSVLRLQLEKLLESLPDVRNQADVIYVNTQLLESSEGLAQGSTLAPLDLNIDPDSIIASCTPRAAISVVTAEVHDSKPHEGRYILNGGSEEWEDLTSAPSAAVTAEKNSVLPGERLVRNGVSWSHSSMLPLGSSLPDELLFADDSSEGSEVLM

With VDSNPYSRLVA [UBA5_Y53_M57V], the figures for the SH2 binding enrichment in [1], in data set [2] and in [3] were 1.7, 3.46 and 1.38, respectively. The phosphorylation enrichment in [4] was 0.611; in data set [5], 0.559; in data set [6], 0.743; in data set [7], 1.02; in data set [8], 0.445; in [9], 0.584. The phosphorylation enrichment in data set [10] was determined as 0.785; in [11], 0.648; in data set [12], 1.21; in [13], 0.465; in data set [14] it was 0.553; in data set [15], 0.55. In addition, the phosphorylation enrichment in [16] was found to be 0.64.
Turning to VDTLWYKFLKR [EPM2A_Y86_F84L], the SH2 binding enrichment in data set [1] was 0.426; in data set [2], 0.573; in data set [3], 0.943. The phosphorylation enrichment was 0.892 in data set [4]; 0.611 in data set [5]; 0.868 in data set [6]; 0.366 in data set [7]; 0.374 in [8]; 0.763 in data set [9]. Besides, the phosphorylation enrichment in data set [10] worked out at 0.466; in data set [11], 0.68; in [12], 0.441; in data set [13] it was 0.414; in data set [14] it was 0.411; in [15], 0.46. Also, in data set [16], the phosphorylation enrichment is 1.11.
For the sequence VECQVYAEDPY [PCCA_Y401_R399Q], the SH2 binding enrichment in data set [1] worked out at 0.457; in data set [2] it was 0.719; in data set [3] it was 0.631. Moreover, the phosphorylation enrichment in [4] worked out at 1.28; in [5] it was 1.12; in data set [6], 1.51; in data set [7] it was 1.02; in [8], 0.466; in data set [9], 0.8. The phosphorylation enrichment in [10] was found to be 0.846; in data set [11], 0.981; in data set [12], 0.669; in data set [13], 0.575; in [14] it was 0.765; in [15], 0.828. Moreover, the phosphorylation enrichment in [16] came out at 1.65.
With VEDHFYEGGIG [TKT_Y564_YF], the figures for the SH2 binding enrichment in data set [1], in [2] and in data set [3] were 4.29, 0.554 and 0.592, respectively. For the same sequence, the phosphorylation enrichment amounted to 1.13 in [4]; 0.875 in data set [5]; 1.24 in data set [6]; 0.594 in data set [7]; 0.575 in data set [8]; 0.543 in data set [9]. For the same sequence, the phosphorylation enrichment in data set [10] came to 0.704; in [11], 0.893; in data set [12], 0.538; in [13], 0.58; in [14] it was 0.684; in [15] it was 0.63. The phosphorylation enrichment in data set [16] worked out at 1.12.
Consider VEYAKYGSLQG [RET_Y809_R813Q], for which the SH2 binding enrichment in [1] was determined as 0.786; in data set [2], 4.76; in data set [3], 0.852. Further, the phosphorylation enrichment in [4] worked out at 0.58; in data set [5], 0.539; in data set [6], 0.614; in data set [7] it was 1.44; in data set [8] it was 0.418; in data set [9] it was 0.438. Also, the phosphorylation enrichment in [10] is 0.458; in data set [11], 0.523; in data set [12], 0.846; in [13] it was 0.549; in data set [14], 1.44; in [15], 0.505. For the same sequence, in [16], the phosphorylation enrichment came out at 0.662.
VFDMLYQLANL [USP24_Y1087]: the SH2 binding enrichment in data set [1] was 1.11; in [2], 1.84; in [3] it was 1.53. Besides, the phosphorylation enrichment in data set [4] is 0.874; in [5], 0.82; in [6], 1.52; in data set [7], 5.01; in data set [8], 2.5; in data set [9], 1.34. Besides, the phosphorylation enrichment was determined as 14.1 in [10]; 0.945 in data set [11]; 3.29 in [12]; 0.754 in data set [13]; 3 in [14]; 1.32 in data set [15]. The phosphorylation enrichment in data set [16] was 1.08.
As to VFSATYHPDHW [EFCAB12_Y544_P541S_YF], the SH2 binding enrichment in data set [1] is 0.565; in data set [2], 0.699; in data set [3], 0.834. Besides, the phosphorylation enrichment stood at 0.807 in data set [4]; 0.614 in data set [5]; 0.739 in data set [6]; 0.761 in [7]; 0.492 in [8]; 0.519 in [9]. Besides, the phosphorylation enrichment was 0.55 in data set [10]; 0.676 in [11]; 0.466 in data set [12]; 0.548 in data set [13]; 0.472 in data set [14]; 0.518 in data set [15]. Besides, the phosphorylation enrichment in data set [16] was 0.785.
On to VHKEGYNKLNQ [ZNF676_Y98], for which the SH2 binding enrichment in data set [1] came out at 0.416; in data set [2], 0.624; in data set [3] it was 0.89. Besides, the phosphorylation enrichment is 0.668 in data set [4]; 0.511 in data set [5]; 0.55 in [6]; 0.463 in data set [7]; 0.426 in [8]; 0.331 in [9]. Also, the phosphorylation enrichment in data set [10] was 0.367; in [11], 0.752; in data set [12] it was 0.381; in [13] it was 0.356; in data set [14] it was 0.38; in data set [15], 0.467. In addition, the phosphorylation enrichment in data set [16] is 0.539.

Values taken from the supplement of paper PMC10065799, “High-throughput profiling of sequence recognition by tyrosine kinases and SH2 domains using bacterial peptide display” (eLife, 2023).
